Patent US20170298096A1 (CANIMGUIDE THERAPEUTICS, published 2017)
No end group written: not given here.

T1: His-tagged P3028 (human, also: His-tag, terminus and sequence not given here)
T1 construct: used in solution in the PEPSCAN (rampo) ELISA; also called PGE73; His-tag-P3028; not shown: His tag
T1 peptide: VFDEFKPLVEEPQNLIK

T2: His-tagged P3028 peptide (PGE73) (human)
T2 construct: albumin-derived peptide, in solution at 0.5 ug/mL; not shown: His-tag
T2 peptide: VFDEFKPLVEEPQNLIK

B1: SEQ ID NO 34 (peptide)
peptide: KKLDTFFVKLSLFTE
B2: SEQ ID NO 68 (peptide)
peptide: KKLDTFFVKLSFTER
B3: SEQ ID NO 64 (peptide)
peptide: KKLTFFVKLSLFTER
B4: SEQ ID NO 53 (peptide)
peptide: KLSLFTER
B5: SEQ ID NO 65 (peptide)
peptide: KKLDTFVKLSLFTER
B6: SEQ ID NO 66 (peptide)
peptide: KKLDTFFKLSLFTER
B7: SEQ ID NO 391 (peptide)
peptide: KKLDTFFVKLSLFTER
B8: SEQ ID NO 46 (peptide)
peptide: KLDTFFVKLSLFTER
B9: SEQ ID NO 50 (peptide)
peptide: FFVKLSLFTER
B10: SEQ ID NO 49 (peptide)
peptide: TFFVKLSLFTER
B11: SEQ ID NO 364 (peptide)
peptide: KKLDTFFVKLSLHTER
B12: SEQ ID NO 368 (peptide)
peptide: KKLDTFFVKLSLNTER
B13: SEQ ID NO 380 (peptide)
peptide: KKLDTFFVKLSLFLER
B14: SEQ ID NO 370 (peptide)
peptide: KKLDTFFVKLSLQTER
B15: SEQ ID NO 383 (peptide)
peptide: KKLDTFFVKLSLFPER
B16: SEQ ID NO 389 (peptide)
peptide: KKLDTFFVKLSLFTEK
B17: SEQ ID NO 373 (peptide)
peptide: KKLDTFFVKLSLTTER
B18: SEQ ID NO 387 (peptide)
peptide: KKLDTFFVKLSLFTDR
B19: SEQ ID NO 366 (peptide)
peptide: KKLDTFFVKLSLLTER
B20: SEQ ID NO 369 (peptide)
peptide: KKLDTFFVKLSLPTER
B21: SEQ ID NO 365 (peptide)
peptide: KKLDTFFVKLSLITER
B22: SEQ ID NO 378 (peptide)
peptide: KKLDTFFVKLSLFHER
B23: SEQ ID NO 371 (peptide)
peptide: KKLDTFFVKLSLRTER
B24: SEQ ID NO 375 (peptide)
peptide: KKLDTFFVKLSLWTER
B25: SEQ ID NO 367 (peptide)
peptide: KKLDTFFVKLSLMTER
B26: SEQ ID NO 381 (peptide)
peptide: KKLDTFFVKLSLFMER
B27: SEQ ID NO 374 (peptide)
peptide: KKLDTFFVKLSLVTER
B28: SEQ ID NO 382 (peptide)
peptide: KKLDTFFVKLSLFNER
B29: SEQ ID NO 372 (peptide)
peptide: KKLDTFFVKLSLSTER
B30: SEQ ID NO 379 (peptide)
peptide: KKLDTFFVKLSLFIER
B31: SEQ ID NO 376 (peptide)
peptide: KKLDTFFVKLSLFFER
B32: SEQ ID NO 386 (peptide)
peptide: KKLDTFFVKLSLFWER
B33: SEQ ID NO 377 (peptide)
peptide: KKLDTFFVKLSLFGER
B34: SEQ ID NO 388 (peptide)
peptide: KKLDTFFVKLSLFTEF
B35: SEQ ID NO 392 (peptide)
peptide: KKLDTFFVKLSLFTET
B36: SEQ ID NO 385 (peptide)
peptide: KKLDTFFVKLSLFVER
B37: SEQ ID NO 384 (peptide)
peptide: KKLDTFFVKLSLFSER
B38: SEQ ID NO 393 (peptide)
peptide: KKLDTFFVKLSLFTEY
B39: SEQ ID NO 390 (peptide)
peptide: KKLDTFFVKLSLFTEN
B40: SEQ ID NO 76 (peptide)
peptide: KKFFVKLSLFTER
B41: SEQ ID NO 48 (peptide)
peptide: DTFFVKLSLFTER
B42: FVKL (peptide)
peptide: FVKL
B43: SEQ ID NO 51 (peptide)
peptide: FVKLSLFTER
B44: SEQ ID NO 52 (peptide)
peptide: VKLSLFTER
B45: SEQ ID NO 47 (peptide)
peptide: LDTFFVKLSLFTER
B46: SEQ ID NO: 268 AKLDTFFVKLSLFTER (peptide)
peptide: AKLDTFFVKLSLFTER
B47: SEQ ID NO: 282 KKADTFFVKLSLFTER (peptide)
peptide: KKADTFFVKLSLFTER
B48: SEQ ID NO: 279 RKLDTFFVKLSLFTER (peptide)
peptide: RKLDTFFVKLSLFTER
B49: SEQ ID NO: 286 KKFDTFFVKLSLFTER (peptide)
peptide: KKFDTFFVKLSLFTER
B50: SEQ ID NO: 270 EKLDTFFVKLSLFTER (peptide)
peptide: EKLDTFFVKLSLFTER
B51: SEQ ID NO: 284 KKDDTFFVKLSLFTER (peptide)
peptide: KKDDTFFVKLSLFTER
B52: SEQ ID NO: 273 IKLDTFFVKLSLFTER (peptide)
peptide: IKLDTFFVKLSLFTER
B53: SEQ ID NO: 287 KKGDTFFVKLSLFTER (peptide)
peptide: KKGDTFFVKLSLFTER
B54: SEQ ID NO: 276 NKLDTFFVKLSLFTER (peptide)
peptide: NKLDTFFVKLSLFTER
B55: SEQ ID NO: 277 PKLDTFFVKLSLFTER (peptide)
peptide: PKLDTFFVKLSLFTER
B56: SEQ ID NO: 274 LKLDTFFVKLSLFTER (peptide)
peptide: LKLDTFFVKLSLFTER
B57: SEQ ID NO: 280 TKLDTFFVKLSLFTER (peptide)
peptide: TKLDTFFVKLSLFTER
B58: SEQ ID NO: 288 KKHDTFFVKLSLFTER (peptide)
peptide: KKHDTFFVKLSLFTER
B59: SEQ ID NO: 281 VKLDTFFVKLSLFTER (peptide)
peptide: VKLDTFFVKLSLFTER
B60: SEQ ID NO: 272 HKLDTFFVKLSLFTER (peptide)
peptide: HKLDTFFVKLSLFTER
B61: SEQ ID NO: 285 KKEDTFFVKLSLFTER (peptide)
peptide: KKEDTFFVKLSLFTER
B62: SEQ ID NO: 289 KKIDTFFVKLSLFTER (peptide)
peptide: KKIDTFFVKLSLFTER
B63: SEQ ID NO: 275 MKLDTFFVKLSLFTER (peptide)
peptide: MKLDTFFVKLSLFTER
B64: SEQ ID NO: 271 GKLDTFFVKLSLFTER (peptide)
peptide: GKLDTFFVKLSLFTER
B65: SEQ ID NO: 269 DKLDTFFVKLSLFTER (peptide)
peptide: DKLDTFFVKLSLFTER
B66: SEQ ID NO: 283 KKCDTFFVKLSLFTER (peptide)
peptide: KKCDTFFVKLSLFTER
B67: SEQ ID NO: 278 QKLDTFFVKLSLFTER (peptide)
peptide: QKLDTFFVKLSLFTER

Target: T1, His-tagged P3028
Assay: PEPSCAN ELISA (rampo)
Protocol: (§1) After washing, the peroxidase substrate 2,2′-azine-di-3-ethylbenzthiazoline sulfonate (ABTS) and 2 μL of 3% H2O2 were added. The binding capacity of the mAb was measured as a color development at 405 nm (optical density, OD405). The color development was quantified with a charge-coupled device (CCD)—camera and an image processing system.
(§2) The OD405-values obtained by a CCD-camera was considered as raw data values (“rampo values,” “rampo units,” or “rampo scores”). […] First the CCD-camera made a picture of the card before peroxidase coloring and then again a picture after the peroxidase coloring. […] These values were copied into an excel file and labeled as a raw data file. One follow-up manipulation was allowed. Sometimes a well can contain an air-bubble resulting in a false-positive value. If manual inspection of the cards detect an air-bubble the value are set to 0 for that well.

| Binder | binding result | rampo score relative to the P28R control sample |
| --- | --- | --- |
| B1 | binds | – |
| B2 | binds | – |
| B3 | binds | – |
| B4 | binds | – |
| B5 | binds | – |
| B6 | binds | – |
| B7 | – | ≥ 98 % of P28R control |
| B8 | binds | – |
| B9 | binds | – |
| B10 | binds | – |
| B11 | – | ≥ 98 % of P28R control |
| B12 | – | ≥ 98 % of P28R control |
| B13 | – | ≥ 98 % of P28R control |
| B14 | – | ≥ 98 % of P28R control |
| B15 | – | ≥ 98 % of P28R control |
| B16 | – | ≥ 98 % of P28R control |
| B17 | – | ≥ 98 % of P28R control |
| B18 | – | ≥ 98 % of P28R control |
| B19 | – | ≥ 98 % of P28R control |
| B20 | – | ≥ 98 % of P28R control |
| B21 | – | ≥ 98 % of P28R control |
| B22 | – | ≥ 98 % of P28R control |
| B23 | – | ≥ 98 % of P28R control |

| Binder | binding result | rampo score relative to the P28R control sample |
| --- | --- | --- |
| B24 | – | ≥ 98 % of P28R control |
| B25 | – | ≥ 98 % of P28R control |
| B26 | – | ≥ 98 % of P28R control |
| B27 | – | ≥ 98 % of P28R control |
| B28 | – | ≥ 98 % of P28R control |
| B29 | – | ≥ 98 % of P28R control |
| B30 | – | ≥ 98 % of P28R control |
| B31 | – | ≥ 98 % of P28R control |
| B32 | – | ≥ 98 % of P28R control |
| B33 | – | ≥ 98 % of P28R control |
| B34 | – | ≥ 98 % of P28R control |
| B35 | – | ≥ 98 % of P28R control |
| B36 | – | ≥ 98 % of P28R control |
| B37 | – | ≥ 98 % of P28R control |
| B38 | – | ≥ 98 % of P28R control |
| B39 | – | ≥ 98 % of P28R control |
| B40 | binds | – |
| B41 | binds | – |
| B42 | binds | – |
| B43 | binds | – |
| B44 | binds | – |
| B45 | binds | – |

Target: T2, His-tagged P3028 peptide (PGE73)
Assay: PEPSCAN ELISA, peptide on card
Protocol: as §1, §2

| Binder | RAMPO Score |
| --- | --- |
| B46 | 466 |
| B47 | 427 |
| B48 | 523 |
| B49 | 393 |
| B50 | 396 |
| B51 | 492 |
| B52 | 483 |
| B53 | 563 |
| B54 | 445 |
| B55 | 387 |
| B56 | 449 |
| B57 | 493 |
| B58 | 477 |
| B59 | 442 |
| B60 | 428 |
| B61 | 528 |
| B62 | 454 |
| B63 | 457 |
| B64 | 367 |
| B65 | 373 |
| B66 | 432 |
| B67 | 455 |
